Here are results for 41 sequences from the nanobody polyreactivity screen of Harvey et al. (2022).

The nature of this data set: yeast display, Sf9 membrane polyspecificity reagent, FACS + sequencing; frameworks hold sequencing errors. The procedure, abridged:
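Nanobodies came from a synthetic yeast display library in Saccharomyces cerevisiae BJ5465, induced with galactose for 36–48 hours and stained for 1 hour at 4 °C with 10% biotinylated, detergent-solubilized Sf9 membrane reagent. Cells were enriched on streptavidin microbeads and then FACS-sorted, with low and high (top ~1%) gates set on anti-HA fluorescence for expression and streptavidin fluorescence for reagent binding. Each polyreactivity label reflects the gate a clone came from. Genes were amplified by colony PCR, sequenced by MiSeq 2 × 250 and filtered by CDR length.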
Regarding “QVQLVESGGGLVQAGGSLRLSCAASGRTFTSNAMGWSRQAPGKERELVAAIDDGGSTNYADSVKGRFTISRDNAKNTVYLQMNSLKPEDTAVYYCNAPITWQYRGFRRRFDYWGQGTQVTVSS”, the “polyreactivity (PSR sort gate)” value was “low polyreactivity”.

In the case of “QVQLVESGGGLVQAGGSLRLSCAASGRTFTSYAMGWYRQAPGKESELVAAIRRSGGSTYADSVKGRFTISRDNAKNTVYLQMNSLKPEDTAVYYCAAGHYWFTKGYHTLYDMDYWGQGTQVTVSS”, the “polyreactivity (PSR sort gate)” value is listed as “high polyreactivity”.

Take “QVQLVESGGGLVQAGGSLRLSCAASGRTFTTIAMGWYRQAPGKERELVSAINSGGSTNYADSVKGRFTISRDNAKNTVYLQMNSLKPEDTAVYYCAKRQRDYSSVFDVDYWGQGTQVTVSS”: the “polyreactivity (PSR sort gate)” value is on record as “low polyreactivity”.

In the case of “QVQLVESGGGLVQAGGSLRLSCAASGRTFTTYAMGWYRQAPGKERELVAAISDTGGITYYADSVKGRFTISRDNAKNTVYLQMNSLKPEDTAVYYCNAESYRAPYDYWGQCTQVTVSS”, the “polyreactivity (PSR sort gate)” value is “low polyreactivity”.

Consider “QVQLVESGGGLVQAGGSLRLSCAASGRTFTVYAMGWNRQAPGKEREFVATSSWSGGRTYYADSVKGRFTISRDNAKYTVYLQMNSLKPEDTAVYYCAAQEYTTRFYFNRDYWGQGTQVTVSS”, for which the “polyreactivity (PSR sort gate)” value was “low polyreactivity”.

Take “QVQLVESGGGLVQAGGSLRLSCAASGRTFTWYAMGWYRQAPGKERELVAVISRGGSTNYADSVKGRFTISRDNAKNTVYLQMKSLKPEDTAVYYCAARGLYRARLKLDYWGQGTQVTVSS”: the “polyreactivity (PSR sort gate)” value is recorded as “high polyreactivity”.

Turning to “QVQLVESGGGLVQAGGSLRLSCAASGRTFTYNTMGWYRQAPGKERELVAAISSSGGSTYYADSVKGRFTISRDNAKNSVYLQMNSLKPEDTAVYYCAKRYFSSSRYYYWGQGTQVTVSS”, the “polyreactivity (PSR sort gate)” value is listed as “high polyreactivity”.

For “QVQLVESGGGLVQAGGSLRLSCAASGRTFTYYAMGWYIHAPGKERELVAAITWSGGSTYYADSVKGRFTISRDNAKNSVYLHMNSLKPEDTAVYYCNKTYRQGWSWVSYRSYGSGEGYWGQGTQVTVSS”, the “polyreactivity (PSR sort gate)” value is “high polyreactivity”.

Consider “QVQLVESGGGLVQAGGSLRLSCAASGRTFTYYAMGWYRQAPGKERELVAAIRYTGGSTHYADSVKGRFTISRDNAKNTVYLQIHSLKPEDTAVYYCGARRAYTRGGTVYFGYYYWGQGTQVTVSS”, for which the “polyreactivity (PSR sort gate)” value was “high polyreactivity”.

Regarding “QVQLVESGGGLVQAGGSLRLSCAASGRTFTYYTMGWYRQAPGKERELVAAITWSGGRTYYADSVKGRFTISRDNAKYTVYLQMNSLKPEDTAVYYCAKPPQGTYDYWGQGTQVTVSS”, the “polyreactivity (PSR sort gate)” value was “low polyreactivity”.

With “QVQLVESGGGLVQAGGSLRLSCAASGRTFVANVKGWYRQAPGKERELVAGISTRGGRTYYADSVKGRFTISRDNAKNTVYLQMNSLKPEDTAVYYCAVRHYRDSTPRGAYQRYDYWGQGTQVTVSS”, the “polyreactivity (PSR sort gate)” value was “low polyreactivity”.

Take “QVQLVESGGGLVQAGGSLRLSCAASGRTFVCNAMGWYRQAPGKERELVAAISSSGTATYYADSVKGRFTISRDNAKNTVYLQMNSLKPEDTAVYYCAKDLLYQPTIRDYWGQGTQVTVSS”: the “polyreactivity (PSR sort gate)” value is given as “low polyreactivity”.

In the case of “QVQLVESGGGLVQAGGSLRLSCAASGRTFVGNAMGWYRQAPGKERELVADITWSGDITYYADSVKGRFTISRDNAKNTVYLQMHSLKPEDTAVYYCAADYHRRRTDYDYWGQGTQVTVSS”, the “polyreactivity (PSR sort gate)” value is given as “low polyreactivity”.

Turning to “QVQLVESGGGLVQAGGSLRLSCAASGRTFVGNAMGWYRQAPGKERELVATITRRGGSTYYADSVKGRFTISRDNAKNTVYLQMNSLKPEDTAVYYCAAGSQPGRKYYYWGQGTQVTVSS”, the “polyreactivity (PSR sort gate)” value is on record as “high polyreactivity”.

In the case of “QVQLVESGGGLVQAGGSLRLSCAASGRTFVGNAMGWYRQAPGKERELVAVITGSGARTYYADSVKGRFTISRDNAKNTVYLQMNSLKPEDTAVYYCAAAGYSGQYRSYYWGQGTQVTVSS”, the “polyreactivity (PSR sort gate)” value is reported as “high polyreactivity”.

Take “QVQLVESGGGLVQAGGSLRLSCAASGRTFVGYAMGWYRQAPGKERELVAAIRNGGGTYYADSVKGRFTISRDNAKNTVYLQMNSLKPEDTAVYYCAARLPRSLKVGYYWGQGTQVTVSS”: the “polyreactivity (PSR sort gate)” value was “high polyreactivity”.

As to “QVQLVESGGGLVQAGGSLRLSCAASGRTFVGYAMGWYRQAPGKERELVAAISTSGGRTYYADSVKGRFTISRDNEKYTVYLQMNSLKPEDTAVYYCAAGFRASIGYVTEYYWGQGTQVTVTS”, the “polyreactivity (PSR sort gate)” value is reported as “high polyreactivity”.

With “QVQLVESGGGLVQAGGSLRLSCAASGRTFVGYAMGWYRQPPGKERELVAAISGSGVRTYYADSVKGRFTISRDNAKNTGYLQMNSLKPEDTAVYYCADRRYRRWYDYWGQGTQVTVSS”, the “polyreactivity (PSR sort gate)” value was “high polyreactivity”.

As for “QVQLVESGGGLVQAGGSLRLSCAASGRTFVGYVMGWYRQAPGKERELVASITYTGTSTYYADSVKGRFTISRDNAKNTVYLQMNSLKPEDTAVYYCAAQYYLYRRGYIWKYDYWGQGTQVTVSS”, the “polyreactivity (PSR sort gate)” value is listed as “high polyreactivity”.

Take “QVQLVESGGGLVQAGGSLRLSCAASGRTFVHYTMGWYRQAPGKERELVAAISGTGTSTYYADSVKGRFTISRDNAKNTVYLQMNSLKPEDTAVYDCARDPYFGFLIGYPRRDYWGQGTQVTVSS”: the “polyreactivity (PSR sort gate)” value is reported as “low polyreactivity”.

For “QVQLVESGGGLVQAGGSLRLSCAASGRTFVHYTMGWYRQAPGKERELVATISTSGGSTSYADSVKGRFTISRDNAKNTVYVQMNSLKPEDTAVYYCAARWYFPDRVKYVYWGQGTQVTVSS”, the “polyreactivity (PSR sort gate)” value was “low polyreactivity”.

For “QVQLVESGGGLVQAGGSLRLSCAASGRTFVNYAMGWYRQAPGKERELVAAISGGGGTNYADSVKGRFTISRDNAKNTVYLHMNSLKPQDTAVYYCAADTNGYEFDYWGQGTLVTVSS”, the “polyreactivity (PSR sort gate)” value was “low polyreactivity”.

Regarding “QVQLVESGGGLVQAGGSLRLSCAASGRTFVNYAMGWYRQAPWKERELVAAITWSSGRTYYADSVKGRFTISRDNAKNTVYLQMNSLKPEDTAVYYCAAVGRYSGYDYWGQGTQVTVSS”, the “polyreactivity (PSR sort gate)” value is given as “high polyreactivity”.

Turning to “QVQLVESGGGLVQAGGSLRLSCAASGRTFVNYAMGWYSQAPGKERELVAAISWTDDDTYYADSVKGRFTISRDNAKNTVYLQMNSLKPEDTAVYYCATDYDSYDYWGQGTQVTVSS”, the “polyreactivity (PSR sort gate)” value is “low polyreactivity”.

For the sequence “QVQLVESGGGLVQAGGSLRLSCAASGRTFVNYTMGWYRQAPGKEWELVAAIRYRDGSTYYADSVKGRFTISRDYAKNTVYLQMNSLKPEDTAVYYCNTRITQVGDYIYDYWGQGTQVTVSS”, the “polyreactivity (PSR sort gate)” value is reported as “low polyreactivity”.

For “QVQLVESGGGLVQAGGSLRLSCAASGRTFVPDVMGWYRQAPGKERELVAAITSGGSTYYADSVKGRFTISRDNAKNTVYLQMNSLKPEDTAVYYCAKRTSWKYGYWGQGTQVTVSS”, the “polyreactivity (PSR sort gate)” value is on record as “high polyreactivity”.

Turning to “QVQLVESGGGLVQAGGSLRLSCAASGRTFVPNALGWYRQAPGKERELVAALSWSGDSTYYADSVKGRFTISRDNAKNTVYLQMNSLKPEDTAVYYCAADPFFGVSIGGLKYHFDYWGQGTQVTVSS”, the “polyreactivity (PSR sort gate)” value is recorded as “low polyreactivity”.

As to “QVQLVESGGGLVQAGGSLRLSCAASGRTFVPNAMGWYRQAPGKERELVAAISDSGGSTYYADSVKGRFTISRDNAKNTVYLQMNSLKPEDTAVYYCATDVTTYVGWEHGFNYWGQGTQVTVSS”, the “polyreactivity (PSR sort gate)” value is on record as “low polyreactivity”.

Regarding “QVQLVESGGGLVQAGGSLRLSCAASGRTFVPYAMGWYIQAPGKEREFVAAISSRVGSTYYADSVKGRFTISRDNAKNTVYLQMKSLKPEDTAVYYCNAPFKPAGFYSAWKYDYWGQGTQVSVSS”, the “polyreactivity (PSR sort gate)” value is listed as “low polyreactivity”.

Regarding “QVQLVESGGGLVQAGGSLRLSCAASGRTFVPYAMGWYRQAHGKERELVAAIDKSDGSTYYADSVKGRFTISRDNAKNTVYLKMNSLKPEDSAVYFCNAEGYTYRYYTIYNYCGQGTQVTVSS”, the “polyreactivity (PSR sort gate)” value is “high polyreactivity”.

Take “QVQLVESGGGLVQAGGSLRLSCAASGRTFVPYAMGWYRQAPGKEREFVAAISSRVGSTYYADSVKGRFTISRDNAKNTVYLQMNSLKQEDTAVYYCNAPFKPAGFYSAWKYDYWGQGTQVTVSS”: the “polyreactivity (PSR sort gate)” value is on record as “low polyreactivity”.

Regarding “QVQLVESGGGLVQAGGSLRLSCAASGRTFVPYAMGWYRQAPGKERELVAAISSGGDTNYADSVKGRFTISRDNAKNTVYLQMNSLKPEDTAVYYCAVGGAGSDDYLGQGTQVTVSS”, the “polyreactivity (PSR sort gate)” value is on record as “low polyreactivity”.

In the case of “QVQLVESGGGLVQAGGSLRLSCAASGRTFVPYAMGWYRQAPGKERELVASITRSGGRTYYADSVKGRFTISRDNAKNTVYLQMNSLKPEDTAVYYCAVDWSVYYRTYDYWGQGTQVTVSS”, the “polyreactivity (PSR sort gate)” value is reported as “high polyreactivity”.

With “QVQLVESGGGLVQAGGSLRLSCAASGRTFVPYAMGWYRQAPGKERELVASITWRGGRTYYADSVKGRFTISRDNAKNTVYLQMNSLKPEDTAVYYCAAVGGYASYFHLYYYWGQGTQVTVSS”, the “polyreactivity (PSR sort gate)” value was “high polyreactivity”.

In the case of “QVQLVESGGGLVQAGGSLRLSCAASGRTFVQNAMGWYRQAPGKERELVASIRYRDGSTYYADSVKGRFTISRDNAKNTVYLQMNSLKPEDTAVYYCAVRVTSDYYASRYYYWGQGSQVTVSS”, the “polyreactivity (PSR sort gate)” value is on record as “high polyreactivity”.

In the case of “QVQLVESGGGLVQAGGSLRLSCAASGRTFVRNAMGWYRQAPGKERELVAAISKSGGITYYADSVKGRFTISRDTAKNTVYLQMNSLKPEDTAVYYCAKRTSYYRSGWSHYGYWGQGTQVTVSS”, the “polyreactivity (PSR sort gate)” value is reported as “high polyreactivity”.

Take “QVQLVESGGGLVQAGGSLRLSCAASGRTFVRNAMGWYRQAPGKVRELVAAISSIGDSTYYADSVKGRFTISRDNAKNTVYLQMNSLKPEDTAVYYSNARGYVYYRMGYWGQGTQETVSS”: the “polyreactivity (PSR sort gate)” value is “low polyreactivity”.

In the case of “QVQLVESGGGLVQAGGSLRLSCAASGRTFVRNTMGWYRQAPGKERELVAAISGGGSTYYADSVKGRFTISSDNAKKTVYLQMNSLKPEDTAVYYCAATTRRQGGKRFDYWGQGTQVTVSS”, the “polyreactivity (PSR sort gate)” value is recorded as “high polyreactivity”.

For “QVQLVESGGGLVQAGGSLRLSCAASGRTFVRYAMGWYRQAPGKERELVAAISWSGGSTYYADSVKGRFTISRDNAKNTVYLQMNSLKPEDTAVYYCATLSAWKASSYDYWGQGTQVTVSS”, the “polyreactivity (PSR sort gate)” value is on record as “high polyreactivity”.

As to “QVQLVESGGGLVQAGGSLRLSCAASGRTFVRYAMGWYRQAPGQERELVARITSRGTSTYYADSVKGRFTISRDNAKNTVYLQKNSLKPEDTAVYYCNKVRTFRDKSRYDYWGQGTQVTVSS”, the “polyreactivity (PSR sort gate)” value is “low polyreactivity”.

In the case of “QVQLVESGGGLVQAGGSLRLSCAASGRTFVSNAMGWYRQAPGKERELVAAINSGGSTTYADSVKGRFTISRDNAKNTVYLKMNSLIPEDTAVYYFARRSRYSKGYDYWGQGTQVTVSS”, the “polyreactivity (PSR sort gate)” value is listed as “low polyreactivity”.
